Reference: paper PMC6532931, “Structures suggest a mechanism for energy coupling by a family of organic anion transporters” (PLoS Biology, 2019)

Substrate: O=C(O)[C@H](O)[C@@H](O)[C@@H](O)[C@H](O)CO
Assay: cells, lysate or membranes
Assay type: cell-based, Escherichia coli
Conditions: pH 6.5, 150 mM KCl, 25 °C, 30 s uptake, labelled compound, H+ symport

B1: DgoT (Escherichia coli) (protein)
chain: MVSGFAMPKIWRKLAMDIPVNAAKPGRRRYLTLVMIFITVVICYVDRANLAVASAHIQEEFGITKAEMGYVFSAFAWLYTLCQIPGGWFLDRVGSRVTYFIAIFGWSVATLFQGFATGLMSLIGLRAITGIFEAPAFPTNNRMVTSWFPEHERASAVGFYTSGQFVGLAFLTPLLIWIQEMLSWHWVFIVTGGIGIIWSLIWFKVYQPPRLTKGISKAELDYIRDGGGLVDGDAPVKKEARQPLTAKDWKLVFHRKLIGVYLGQFAVASTLWFFLTWFPNYLTQEKGITALKAGFMTTVPFLAAFVGVLLSGWVADLLVRKGFSLGFARKTPIICGLLISTCIMGANYTNDPMMIMCLMALAFFGNGFASITWSLVSSLAPMRLIGLTGGVFNFAGGLGGITVPLVVGYLAQGYGFAPALVYISAVALIGALSYILLVGDVKRVG
notes: full-length in pQE60, C-terminal thrombin site and decahistidine tag (kept in uptake assays, cut for crystallization); expressed in E. coli dgoT knock-out (Keio, lambda-DE3) for uptake, E. coli C41 for purification
B1 gave a Km of 18 ± 4 µM.
